Results reported in patent US6376753B1, “PURIFIED CYTOCHROME P450 POLYPEPTIDE CYP76B1 FROM HELIANTHUS TUBEROSUS AND ITS APPLICATIONS AS BIOCATALYST IN PARTICULAR FOR THE DEGRADATION OF ENVIRONMENTAL POLLUTANTS AND FOR ALTERING THE RESISTANCE OF PLANTS SENSITIVE TO PHENYLUREA FAMILY OF HERBICIDES” (priority 1997, dated 2002).

Columns and labels:
[1] = test system: 7-methoxyresorufin O-dealkylase activity; assay: Induction of 7-methoxyresorufin O-demethylase activity in tuber slices; assay type: cell-based, Helianthus tuberosus; details: 48 hours of treatment
Method: Slices of dormant tuber of Helianthus tuberosus were placed under survival conditions in oxygenated distilled water and stirred with a current of compressed air in the presence of various metals or organic compounds (effectors).
A control was performed with DMSO alone.

CYP76B1 transcripts [2] = test system: CYP76B1 transcripts
CYP76B1 transcripts [3] = details: tuber tissues aged 48 h with the chemical
[4] = substrate: CC(C)c1ccc(NC(=O)N(C)C)cc1; assay: purified protein, by the assay type
Method: (§1) Yeast microsomes were prepared as described in Pierrel et al. (33) with addition of 1% SAB, 2 mM β-mercaptoethanol, 10 mM sodium disulfite and 1 mM PMSF to the extraction buffer. When indicated, 0.5 mM δ-aminolevulinic acid methyl ester (Sigma) was added to the induction medium, or cells were stored at 4° C. for 24 h before preparation of the microsomes.
(§2) Spectrophotometric measurements of P450 content and substrate binding were performed as in (Gabriac et al., 1991) and SDS-PAGE was performed as in Gabriac et al. (34). Gels were stained with Coomassie Blue R-250. Alkoxycoumarins and alkoxyresorufins O-dealkylation was measured by fluorometry (Werck-Reichhart et al., 1990). The data are means ± S.D. of triplicates.
(§3) The conversion of other molecules was assayed by TLC or HPLC analysis of polar metabolites formed from radiolabeled compounds (Cabello-Hurtado et al., 1998a, b). NADPH-cytochrome c reductase was assayed according to (Benveniste et al., 1986).
(§4) 10 μL of non-immune serum or of serum raised against purified ECOD fraction were preincubated 2 min at room temperature with 10 μL of microsomes before addition of the reaction mix. n.d.: not detectable.
(§5) Conversion was estimated from the sum of the two polar metabolites detected after TLC analysis. Data are means + S.D. of two to four determinations. n.d.: not detected.
(§6) CYP76B1 concentrations in the MCOD, ECOD, MROD and EROD fluorometric assays were 1.5 nM or 2.1 nM, depending on the coexpressed ATR1 or yeast reductases. In the CTUDM assays, CYP76B1 concentrations were 1.7 nM (ATR1) and 8 nM (yeast), respectively. It was 12 nM for the determination of the catalytic parameters of monodemethyl-CTUDM, and 1.7 nM (ATR1) or 20 nM (yeast) in the IPUDM assays. Products were quantified by direct TLC analysis of 100 μL of the acidified incubation medium after 6 min incubation at 30° C. for the CTUDM and IPUDM assays, and after 9 min incubation for the monodemethyl-CTUDM.

[5] = substrate: CCOc1ccc2ccc(=O)oc2c1; assay: purified protein, by the assay type
Method: as §1, §2, §3, §4, §5, §6

[6] = substrate: CCOc1ccc2nc3ccc(=O)cc-3oc2c1; assay: purified protein, by the assay type; details: other: coexpressed yeast reductase (W(R))
Method: as §1, §2, §3, §4, §5, §6

[7] = substrate: COc1ccc2ccc(=O)oc2c1; assay: purified protein, by the assay type
Method: as §1, §2, §3, §4, §5, §6

[8] = substrate: Cc1ccc(NC(=O)N(C)C)cc1Cl; assay: purified protein, by the assay type
Method: as §1, §2, §3, §4, §5, §6

[9] = other: coexpressed reductase ATR1 (WAT11)
[10] = other: coexpressed yeast reductase (W(R))

In the case of Cc1c(N(C)C)c(=O)n(-c2ccccc2)n1C [aminopyrine], the “induction of 7-methoxyresorufin O-dealkylase activity” value (“induction” below) [1] is reported as “very strongly induced” and the “fold more transcripts coding for CYP76B1 than for CYP73A1 or CYP81B1” value (CYP76B1 transcripts [2]) is reported as 2 to 6 fold.

For [Cl][Mn][Cl] [manganese, MnCl2], the “induction” value [1] was “very strongly induced” and the “fold more transcripts coding for CYP76B1 than for CYP73A1 or CYP81B1” value (CYP76B1 transcripts [2]) was 2 to 6 fold.

In the case of CCC1(c2ccccc2)C(=O)NC(=O)NC1=O.[Na] [phenobarbital, 5-ethyl-5-phenyl-barbituric acid, sodium salt], the “induction” value [1] is reported as “very strongly induced”, the “effect on CYP76B1 mRNA accumulation / expression” value (CYP76B1 transcripts [3]) is reported as “strongly induced” and the “level of CYP76B1 transcripts relative to the control” value (CYP76B1 transcripts [3]) is reported as 6 ×.

B1: CYP76B1 (Helianthus tuberosus) (protein)
chain: MDFLIIVSTLLLSYILIWVLGVGKPKNLPPGPTRLPIIGNLHLLGALPHQSLAKLAKIHGPIMSLQLGQITTLVISSATAAEEVLKKQDLAFSTRNVPDAVRAYNHERHSISFLHVCTEWRTLRRIVSSNIFSNSSLEAKQHLRSKKVEELIAYCRKAALSNENVHIGRAAFRTSLNLLSNTIFSKDLTDPYEDSGKEFREVITNIMVDSAKTNLVDVFPVLKKIDPQGIKRGMARHFSKVLGIFDQLIEERMRTGRFEQGDVLDVCLKMMQDNPNEFNHTNIKALFLDLFVAGTDTTSITIEWAMTELLRKPHIMSKAKEELEKVIGKGSIVKEDDVLRLPYLSCIVKEVLRLHPPSPLLLPRKVVTQVELSGYTIPAGTLVFVNAWAIGRDPTVWDDSLEFKPQRFLESRLDVRGHDFDLIPFGAGRRICPGIPLATRMVPIMLGSLLNNFDWKIDTKVPYDVLDMTEKNGTTISKAKPLCVVPIPLN
With B1 the Km [4, 9] was 289 µM, the Km [4, 10] was 361 µM and the Km [5, 9] was 60 µM. For the same molecule, the kcat [5, 9] was 0.5 s⁻¹, the kcat/Km [5, 9] was 8330 M⁻¹ s⁻¹ and the Km [5, 10] was 74 µM. It also gave a kcat [5, 10] of 0.167 s⁻¹, a kcat/Km [5, 10] of 2170 M⁻¹ s⁻¹ and a Km [6] of 0.49 µM. It also gave a kcat [6] of 0.1 s⁻¹, a kcat/Km [6] of 200000 M⁻¹ s⁻¹ and a Km [7, 9] of 808 µM. It also gave a kcat [7, 9] of 0.517 s⁻¹, a kcat/Km [7, 9] of 667 M⁻¹ s⁻¹ and a Km [7, 10] of 899 µM. The kcat [7, 10] was 0.217 s⁻¹, the kcat/Km [7, 10] was 167 M⁻¹ s⁻¹ and the Km [8, 9] was 179 µM. For the same molecule, the Km [8, 10] was 202 µM.
